Laboratory results as given in article PMC13464484, “Ancestral proteins trace the emergence of substrate specificity and oligomerization within bacterial DEDDy dinucleases” (Science Advances, 2026).

Columns and labels:
[1] = biological target: Alphaproteobacterial NrnC ortholog from Sphingomonas (Sphingomonas (genus only)); assay: mass photometry; protein at 100 nM in phosphate-buffered saline, TwoMP instrument
[2] = biological target: diDNase ortholog from Actinomadura (Actinomadura (genus only)); assay: SEC-MALS; purified protein at 1 to 2 mg/ml (~40 to 80 uM) on Superdex 200 Increase 10/300 GL in gel-filtration buffer (25 mM Hepes-NaOH, 150 mM NaCl, pH 7.5; 500 mM NaCl for ancestor A0), room temperature
[3] = biological target: NrnC ortholog from Methylobacter (Methylobacter (genus only)); assay: as above
[4] = biological target: NrnC ortholog from Thermosynechococcus (Thermosynechococcus (genus only)); assay: as above
[5] = biological target: diDNase ortholog from Nocardia (Nocardia (genus only)); assay: as above
[6] = biological target: diDNase ortholog from Mycobacterium (Mycobacterium (genus only)); assay: […] (~40 to 80 uM) […], pH 7.5; […], room temperature
[7] = biological target: the molecule itself; assay: mass photometry; protein at 100 nM in phosphate-buffered saline, TwoMP instrument

For “Alphaproteobacterial NrnC ortholog from Sphingomonas (enzyme)”, the percent dimers [1] was > 85% and the stoichiometry N [1] was 2.

With “diDNase ortholog from Actinomadura (enzyme)” the stoichiometry N [2] was 2.

“NrnC ortholog from Methylobacter (enzyme)” showed a stoichiometry N [3] of 8.

“NrnC ortholog from Thermosynechococcus (enzyme)” gave a stoichiometry N [4] of 8.

Work on diDNase ortholog from Nocardia (enzyme) yielded a stoichiometry N [5] of 2.

“diDNase ortholog from Mycobacterium (enzyme)” showed a stoichiometry N [6] of 2.

B1: Alphaproteobacterial NrnC ortholog from Caulobacter (enzyme)
chain: MANFVHEGDLPDGVFADAEIIAIDSETMGLRLRRDPLCVVQLSAGDGDAHVVRLSRPDYDCPNLKALLTNPKVLKLFHFGRFDIAMFELHLGVVTAPVYCTKIASKLARTYTDRHGLKDVTRELLGVELSKVQQSSDWGAPSLSVDQVAYAASDVLHLHGLRLKLNAMLEREGRMALAQHAFDYLPHRASLDLAGWEEMDIFAHS
For B1, the “stoichiometry N” value [7] was 2.
